Test results taken from patent US20180326084A1 (Genmab, published 2018).
Substitutions are numbered along the chain they refer to. Like-named read-outs stand apart in the source and are kept apart here.

How the values were obtained:
[1] = target: T1, Homo sapiens AXL-Mus musculus FN1 domain (p33-AXL-mFN1) (human-mouse chimera, UniProt P30530 26-894); experiment: flow cytometry, 1 µg/mL antibody, transfected HEK293F cells
T1 construct: Expressed in HEK293F cells; also called hsAXL-mmFN1; TH1021-mFN1
T1 chain: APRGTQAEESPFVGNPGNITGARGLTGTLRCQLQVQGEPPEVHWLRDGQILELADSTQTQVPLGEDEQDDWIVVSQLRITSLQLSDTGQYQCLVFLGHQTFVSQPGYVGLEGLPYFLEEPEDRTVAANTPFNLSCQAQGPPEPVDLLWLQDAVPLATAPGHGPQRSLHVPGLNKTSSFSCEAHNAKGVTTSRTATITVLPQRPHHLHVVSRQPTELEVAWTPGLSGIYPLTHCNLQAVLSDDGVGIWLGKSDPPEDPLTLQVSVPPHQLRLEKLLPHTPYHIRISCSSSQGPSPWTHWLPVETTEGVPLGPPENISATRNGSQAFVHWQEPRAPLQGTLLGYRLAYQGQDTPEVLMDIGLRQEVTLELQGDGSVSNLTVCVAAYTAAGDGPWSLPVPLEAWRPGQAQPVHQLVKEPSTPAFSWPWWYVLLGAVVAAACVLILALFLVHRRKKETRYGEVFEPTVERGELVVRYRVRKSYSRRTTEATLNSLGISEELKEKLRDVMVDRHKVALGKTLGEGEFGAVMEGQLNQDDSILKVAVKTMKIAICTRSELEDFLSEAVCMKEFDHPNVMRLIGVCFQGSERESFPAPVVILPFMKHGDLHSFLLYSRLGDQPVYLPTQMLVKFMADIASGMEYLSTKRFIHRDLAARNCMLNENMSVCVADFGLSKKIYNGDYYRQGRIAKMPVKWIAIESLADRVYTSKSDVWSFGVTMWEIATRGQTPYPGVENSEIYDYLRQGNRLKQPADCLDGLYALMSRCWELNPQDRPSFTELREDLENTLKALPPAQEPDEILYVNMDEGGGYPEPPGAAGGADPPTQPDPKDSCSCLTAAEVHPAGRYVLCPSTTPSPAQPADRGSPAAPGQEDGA

[2] = target: T2, Homo sapiens AXL-Mus musculus FN2 domain (p33-AXL-mFN2) (human-mouse chimera, UniProt P30530 26-894); experiment: as above
T2 construct: Expressed in HEK293F cells; also called hsAXL-mmFN2; TH1021-mFN2
T2 chain: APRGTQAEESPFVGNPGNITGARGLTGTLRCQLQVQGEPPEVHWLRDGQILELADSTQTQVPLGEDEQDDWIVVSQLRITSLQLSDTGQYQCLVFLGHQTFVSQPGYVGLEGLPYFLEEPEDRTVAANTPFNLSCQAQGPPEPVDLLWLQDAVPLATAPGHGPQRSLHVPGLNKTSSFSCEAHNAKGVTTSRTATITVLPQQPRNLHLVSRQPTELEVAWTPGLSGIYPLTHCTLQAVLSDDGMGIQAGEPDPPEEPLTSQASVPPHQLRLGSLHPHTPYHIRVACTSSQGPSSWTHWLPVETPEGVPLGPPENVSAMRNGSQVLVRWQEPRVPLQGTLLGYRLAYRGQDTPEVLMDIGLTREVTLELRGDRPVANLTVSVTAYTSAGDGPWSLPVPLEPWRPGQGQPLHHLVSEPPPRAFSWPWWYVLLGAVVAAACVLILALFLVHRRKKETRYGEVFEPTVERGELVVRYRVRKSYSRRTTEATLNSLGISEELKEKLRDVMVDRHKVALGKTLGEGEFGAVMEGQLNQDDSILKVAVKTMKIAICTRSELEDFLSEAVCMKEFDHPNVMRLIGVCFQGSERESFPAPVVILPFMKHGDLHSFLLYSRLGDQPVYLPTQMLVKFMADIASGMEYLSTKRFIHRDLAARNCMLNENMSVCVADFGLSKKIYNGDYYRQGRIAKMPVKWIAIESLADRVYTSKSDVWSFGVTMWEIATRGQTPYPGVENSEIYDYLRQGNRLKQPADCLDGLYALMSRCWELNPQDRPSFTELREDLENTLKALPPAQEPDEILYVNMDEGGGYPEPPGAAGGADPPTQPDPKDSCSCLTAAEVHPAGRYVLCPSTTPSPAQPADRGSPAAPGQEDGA

[3] = target: T3, Homo sapiens AXL-Mus musculus Ig1 domain (p33-AXL-mIg1) (human-mouse chimera, UniProt P30530 8-894); experiment: as above
T3 construct: Expressed in HEK293F cells; also called hsAXL-mmIg1; hsAXL-mmIgl
T3 chain: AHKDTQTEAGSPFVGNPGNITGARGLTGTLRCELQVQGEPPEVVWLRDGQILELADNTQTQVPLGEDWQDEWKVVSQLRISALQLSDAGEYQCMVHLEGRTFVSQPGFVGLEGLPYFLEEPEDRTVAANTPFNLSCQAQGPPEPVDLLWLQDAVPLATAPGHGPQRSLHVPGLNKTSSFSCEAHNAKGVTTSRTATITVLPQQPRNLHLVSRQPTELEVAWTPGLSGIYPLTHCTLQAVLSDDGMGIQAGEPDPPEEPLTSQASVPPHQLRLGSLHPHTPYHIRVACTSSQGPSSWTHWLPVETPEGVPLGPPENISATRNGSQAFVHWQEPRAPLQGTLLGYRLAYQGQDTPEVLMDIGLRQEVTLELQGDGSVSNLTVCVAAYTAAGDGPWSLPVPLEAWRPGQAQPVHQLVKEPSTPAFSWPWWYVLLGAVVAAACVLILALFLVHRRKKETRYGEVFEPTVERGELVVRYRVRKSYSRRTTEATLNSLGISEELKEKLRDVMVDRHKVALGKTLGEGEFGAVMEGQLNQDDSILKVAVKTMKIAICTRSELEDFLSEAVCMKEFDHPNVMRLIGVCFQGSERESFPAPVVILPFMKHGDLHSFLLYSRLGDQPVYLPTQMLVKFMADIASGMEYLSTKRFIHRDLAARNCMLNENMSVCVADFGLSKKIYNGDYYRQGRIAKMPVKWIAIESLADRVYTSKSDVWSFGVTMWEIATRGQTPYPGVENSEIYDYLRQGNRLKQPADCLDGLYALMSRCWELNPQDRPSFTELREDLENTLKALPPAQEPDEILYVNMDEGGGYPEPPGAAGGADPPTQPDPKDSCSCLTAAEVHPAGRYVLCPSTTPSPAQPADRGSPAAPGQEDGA

human AXL (full length) [4] = target: T4, human AXL (full length) (human, UniProt P30530 26-894); experiment: flow cytometry, HEK293T cells transiently transfected with human AXL
T4 construct: also called TH1021-AXL; TH1021-hAXL

human AXL (full length) [5] = target: T4, human AXL (full length); experiment: flow cytometry, A431 cells pre-incubated with 10 µg/mL Gas6 (competitor)
human AXL (full length) [6] = target: T4, human AXL (full length); experiment: flow cytometry, A431 cells, no Gas6
AXLECDHis [7] = target: T5, AXLECDHis (human, UniProt P30530 26-447); experiment: BLI (Octet), IgG on anti-human Fc sensor, AXLECDHis analyte
T5 construct: theoretical mass 46 kDa used; also called extracellular domain (ECD) of human AXL (aa 1-447) with a C-terminal His tag; soluble recombinant AXL extracellular domain

[8] = target: T6, human AXL with a cynomolgus monkey extracellular domain (ECD) (cynomolgus monkey (Macaca …, UniProt P30530 26-894)); experiment: flow cytometry, HEK293T cells with human AXL carrying cynomolgus ECD
T6 construct: Chimera on transfected HEK293T cells; also called cynomolgus AXL; cynomolgus AXL-ECD
T6 chain: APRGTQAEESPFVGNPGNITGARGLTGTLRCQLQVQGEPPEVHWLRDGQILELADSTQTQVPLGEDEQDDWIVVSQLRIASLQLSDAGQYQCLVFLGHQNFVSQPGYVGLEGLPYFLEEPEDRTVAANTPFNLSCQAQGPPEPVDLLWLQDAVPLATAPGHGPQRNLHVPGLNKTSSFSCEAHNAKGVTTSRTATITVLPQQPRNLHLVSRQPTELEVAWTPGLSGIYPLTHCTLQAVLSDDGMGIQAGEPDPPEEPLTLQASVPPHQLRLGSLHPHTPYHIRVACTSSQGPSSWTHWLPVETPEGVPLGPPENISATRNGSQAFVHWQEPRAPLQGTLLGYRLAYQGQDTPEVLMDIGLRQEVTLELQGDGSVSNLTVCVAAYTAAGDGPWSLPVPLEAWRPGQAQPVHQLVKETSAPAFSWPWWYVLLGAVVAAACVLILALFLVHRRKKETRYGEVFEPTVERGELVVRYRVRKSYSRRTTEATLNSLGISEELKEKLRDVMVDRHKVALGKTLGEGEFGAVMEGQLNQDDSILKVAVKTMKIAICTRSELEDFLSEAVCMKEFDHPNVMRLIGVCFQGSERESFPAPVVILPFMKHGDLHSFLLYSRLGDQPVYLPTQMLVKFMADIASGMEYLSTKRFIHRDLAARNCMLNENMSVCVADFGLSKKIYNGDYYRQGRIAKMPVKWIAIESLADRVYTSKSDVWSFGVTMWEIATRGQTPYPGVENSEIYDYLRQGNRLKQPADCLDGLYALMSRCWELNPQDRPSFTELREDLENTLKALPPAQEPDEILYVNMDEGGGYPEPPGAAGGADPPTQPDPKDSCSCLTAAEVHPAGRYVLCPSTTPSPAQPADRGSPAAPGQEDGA

human AXL (full length) [9] = target: T4, human AXL (full length); experiment: flow cytometry, HEK293T cells with full-length human AXL
AXLECDHis [10] = target: T5, AXLECDHis; experiment: BLI (Octet), IgG on anti-human Fc sensor, AXLECDHis analyte; remark: listed apart in the source

B1: IgG1-AXL-171 (antibody, V domains shown)
VH: EVQLLESGGGLVQPGGSLRLSCAASGFTFSSYAMSWVRQAPGKGLEWVSDISVSGGSTYYADSVKGRFTISRDNSKNTLYLQMNSLRAEDTAVYYCAKEGYIWFGESLSYAFDIWGQGTMVTVSS
VL: not shown
binding result [1]: binds
binding result [2]: binds
binding result [3]: binds

B2: IgG1-AXL-148-A-vcDuo3 (antibody, V domains shown)
VH: EVQLLESGGGLVQPGGSLRLSCAASGFTFSSYAMTWVRQAPGKGLEWVSAISISGGSTFYADSVKGRFTISRDNSKNTLYLQMNSLRAEDTAVYYCRGYSGYVYDAFDFWGQGTMVTVSS
VL: DIQMTQSPSSLSASVGDRVTITCRASQGISNWLAWYQQKPEKAPKSLIYAASSLQSGVPSRFSGSGSGTDFTLTISSLQPEDFATYYCQQYNSYPLTFGGGTKVEIK
modifications: drug-linker on lysine(s); chain and position not given
notes: also called IgG1-AXL-148-vcDuostatin3; IgG1-AXL-148-vcDuo3
binding result (human AXL (full length) [4]): binds

B3: IgG1-AXL-511 (antibody, V domains shown)
VH: EVQLLESGGGLVQPGGSLRLSCAASGFTFSSYAMNWVRQAPGKGLEWVSGISGSGGHTYHADSVKGRFTISRDNSKNTLYLQMNSLRAEDTAVYYCAKDRYDILTGYYNLLDYWGQGTLVTVSS
VL: B2 VL with N31S, K42E, T102A
notes: also called clone 511
EC50 (human AXL (full length) [5]): 0.3 µg/mL
maximal binding in presence of Gas6 (% of binding in absence of Gas6) (human AXL (full length) [5]): 93%
EC50 (human AXL (full length) [6]): 0.12 µg/mL
Kd (AXLECDHis [7]): 23 nM
koff (AXLECDHis [7]): 0.0039 s⁻¹
kon (AXLECDHis [7]): 170000 M⁻¹ s⁻¹

B4: IgG1-AXL-183-N52Q (antibody, V domains shown)
VH: QVQLQQWGAGLLKPSETLSLTCAVYGGSFSGYYWSWIRQPPGKGLEWIGEIQQSGSTNYNPSLKSRVTISVDTSKNQFSLKLSSVTAADTSVYYCASGNWDHFFDYWGQGTLVTVSS
VL: DIQMTQSPSSVSASVGDRVTITCRASQGISSWLAWYQHKPGKAPKLLIYATSSLQSGVTSRFSGSGSGTDFTLTISSLQPEDFATYYCQQAKSFPWTFGQGTKVEIK
notes: Expressed as human IgG1,κ; also called IgG1-AXL-183-N520
EC50 [8]: 0.324 µg/mL
EC50 (human AXL (full length) [9]): 0.35 µg/mL
Kd (AXLECDHis [10]): 24 nM
koff (AXLECDHis [10]): 0.001 s⁻¹
kon (AXLECDHis [10]): 42000 M⁻¹ s⁻¹
fold change of dissociation rate against wild-type IgG1-AXL-183 (AXLECDHis [7]): ~2.5 fold

B5: IgG1-AXL-183-A-vcDuo3 (antibody, V domains shown)
VH: B4 VH with Q52N
VL: B4 VL
modifications: drug-linker on lysine(s); chain and position not given
notes: also called IgG1-AXL-183-vcDuostatin3; IgG1-AXL-183-vcDuo3
EC50 (read off the curve) (human AXL (full length) [4]): ~0.2 µg/mL
